Data reported in publication PMC1277823, “nfi-1 affects behavior and life-span in C. elegans but is not essential for DNA replication or survival”.

B1: 2.6 (dsDNA)
DNA 1: AGGTCTGGCTTTGGGCCAAGAGCCGC
DNA 2: GCGGCTCTTGGCCCAAAGCCAGACCT
B2: C2 (dsDNA)
DNA 1: AGGTCTCGCTTTGGGCCAAGAGCCGC
DNA 2: GCGGCTCTTGGCCCAAAGCGAGACCT

Molecular target: hNFI-C220-H6 (human, UniProt P08651 1-220)
Assay: EMSA; ~5 ng protein; EMSA on 6.5% non-denaturing polyacrylamide gel (Fig. 2A); buffer, salt, pH and temperature not given (as in cited refs 38, 54)
Conditions: protein: recombinant; tags: 6xHis; chain copies: 2

hNFI-C220-H6, sequence (P08651 1-220): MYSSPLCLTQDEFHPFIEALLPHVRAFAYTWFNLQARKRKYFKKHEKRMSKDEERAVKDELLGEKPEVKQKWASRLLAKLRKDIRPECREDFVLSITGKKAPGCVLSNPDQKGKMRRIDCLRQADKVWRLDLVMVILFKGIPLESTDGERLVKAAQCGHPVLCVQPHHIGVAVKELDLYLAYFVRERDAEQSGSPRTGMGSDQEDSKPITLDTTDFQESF

Row | Binder | binding result
1 | B1 | binds
2 | B2 | no binding
